Source: patent publication US20260209345A1 (IOMX THERAPEUTICS, published 2026)

How the values were obtained:
[1] = target: T1, recombinant LILRB1 ECD (human, UniProt Q8NHL6 24-461); assay: ELISA, LILRB1 ECD binding to HLA-G-Fc
T1 construct: also called biotinylated LILRB1 ECD
Protocol: (§1) HLA-G inhibition was tested by ELISA. 384-well Maxisorp plates were coated with 2 ug/mL B2M-HLA-G fused to a mouse IgG2a-Fc and the plates were blocked with 2% (w/v) BSA in PBST. […] 15 ul of the antibody dilution series (300 nM to 0.3 nM) were mixed with 30 μL of the pre-mixed LILRB/Avidin-HRP solution (final antibody concentration 100 nM to 0.1 nM) and incubated for 1 h at room temperature. After three wash cycles with PBST, 20 μL of the antibody/LILRB/Avidin-HRP solution was transferred to the plate with immobilized HLA-G and incubated for 15 min at room temperature. After three wash cycles with PBST, residual LILRB binding to HLA-G was detected by developing the ELISA with TMB substrate.

[2] = target: T1, recombinant LILRB1 ECD; assay: BLI, IgG on AHC sensor, ECD in solution
Protocol: (§2) Briefly, IgGs were captured on anti-human capture (AHC) biosensors (Sartorius). […] Subsequently, the sensors were dipped into 1× Kinetics Buffer to measure the dissociation over 420 s. All sensorgrams were double referenced against 1× Kinetics Buffer and unloaded […] sensors to subtract sensor drifts and potential reference binding of the analytes. The affinities were determined by applying a 1:1 binding model.

[3] = target: T2, recombinant LILRA3 (human, UniProt Q8N6C8 24-439); assay: BLI, IgG on AHC sensor, ECD in solution
T2 construct: whole entry named; also called LILRA3 ECD; LILA3
T2 sequence (Q8N6C8 24-439 limits assumed): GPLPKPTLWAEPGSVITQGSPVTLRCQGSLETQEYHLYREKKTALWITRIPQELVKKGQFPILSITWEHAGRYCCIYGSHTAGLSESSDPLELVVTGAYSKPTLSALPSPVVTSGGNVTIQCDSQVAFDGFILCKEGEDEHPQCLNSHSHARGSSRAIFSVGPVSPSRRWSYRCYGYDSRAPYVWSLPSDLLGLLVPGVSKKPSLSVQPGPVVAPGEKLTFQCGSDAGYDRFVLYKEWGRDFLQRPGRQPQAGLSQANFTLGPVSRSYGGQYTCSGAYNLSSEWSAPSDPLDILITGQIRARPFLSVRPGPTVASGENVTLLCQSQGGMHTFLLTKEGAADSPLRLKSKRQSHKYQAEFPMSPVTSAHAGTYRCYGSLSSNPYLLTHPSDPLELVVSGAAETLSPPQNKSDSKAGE
Protocol: as §2

[4] = target: T3, recombinant LILRA1 ECD (human, UniProt O75019 17-461); assay: BLI, IgG on AHC sensor, ECD in solution
T3 construct: whole canonical entry named; also called LILA1
T3 sequence (O75019 17-461 limits assumed): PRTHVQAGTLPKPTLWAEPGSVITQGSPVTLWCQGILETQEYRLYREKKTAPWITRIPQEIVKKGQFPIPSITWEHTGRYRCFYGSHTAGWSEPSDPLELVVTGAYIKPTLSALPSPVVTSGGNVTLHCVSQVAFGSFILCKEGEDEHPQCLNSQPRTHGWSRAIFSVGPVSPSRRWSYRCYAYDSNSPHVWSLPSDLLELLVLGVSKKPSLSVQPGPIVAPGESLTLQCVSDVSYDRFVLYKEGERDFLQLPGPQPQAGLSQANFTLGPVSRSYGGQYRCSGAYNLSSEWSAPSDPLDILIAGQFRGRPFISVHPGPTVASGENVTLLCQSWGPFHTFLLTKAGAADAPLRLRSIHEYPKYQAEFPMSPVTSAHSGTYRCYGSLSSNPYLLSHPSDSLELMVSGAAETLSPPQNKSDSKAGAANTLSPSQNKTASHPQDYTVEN
Protocol: as §2

[5] = target: T4, recombinant LILRB2 ECD (human, UniProt Q8N423 22-460); assay: BLI, IgG on AHC sensor, ECD in solution
T4 construct: also called biotinylated LILRB2 ECD
T4 sequence (Q8N423 22-460 limits assumed): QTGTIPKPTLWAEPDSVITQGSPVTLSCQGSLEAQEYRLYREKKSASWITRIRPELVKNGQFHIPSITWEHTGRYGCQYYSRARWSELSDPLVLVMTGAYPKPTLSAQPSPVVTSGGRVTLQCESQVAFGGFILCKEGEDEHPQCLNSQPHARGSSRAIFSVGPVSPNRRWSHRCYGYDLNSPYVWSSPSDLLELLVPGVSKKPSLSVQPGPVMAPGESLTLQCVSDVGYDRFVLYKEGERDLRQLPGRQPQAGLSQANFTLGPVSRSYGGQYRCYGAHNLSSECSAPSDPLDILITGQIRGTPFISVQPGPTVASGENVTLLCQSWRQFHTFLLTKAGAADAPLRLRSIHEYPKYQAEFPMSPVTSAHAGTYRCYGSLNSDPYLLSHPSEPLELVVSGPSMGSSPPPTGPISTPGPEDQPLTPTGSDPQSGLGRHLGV
Protocol: as §2

[6] = target: T4, recombinant LILRB2 ECD; assay: ELISA, LILRB2 ECD binding to HLA-G-Fc
Protocol: as §1

T1 sequence (Q8NHL6 24-461 limits assumed): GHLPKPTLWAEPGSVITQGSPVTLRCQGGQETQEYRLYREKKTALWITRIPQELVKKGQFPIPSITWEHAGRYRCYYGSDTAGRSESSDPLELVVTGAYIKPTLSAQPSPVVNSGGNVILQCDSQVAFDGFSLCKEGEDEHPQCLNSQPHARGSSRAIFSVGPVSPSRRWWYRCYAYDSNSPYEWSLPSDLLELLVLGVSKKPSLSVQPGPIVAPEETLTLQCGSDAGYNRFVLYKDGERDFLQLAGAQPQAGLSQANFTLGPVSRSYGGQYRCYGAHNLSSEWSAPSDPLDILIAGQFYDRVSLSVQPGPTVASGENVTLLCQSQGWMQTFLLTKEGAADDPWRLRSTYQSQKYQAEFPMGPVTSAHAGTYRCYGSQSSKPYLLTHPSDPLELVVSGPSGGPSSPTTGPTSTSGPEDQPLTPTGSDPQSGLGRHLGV

Work on “Ref051 [BND-22, LILRB1 specific] (antibody)” yielded an IC50 [1] of 1.8 nM, a Kd [2] of 6.9 nM and a Kd [3] of 39.4 nM. For the same molecule, the Kd [4] was 15.1 nM.

B1: A-001 (antibody, V domains shown)
VH: QVQLVQSGAEVKKPGSSVKVSCKASGGTFSSYAISWVRQAPGQGLEWMGGIIPIFGTANYAQKFQGRVTITADESTSTAYMELSSLRSEDTAVYYCAKDLGTYSSGWPYYYGMDVWGQGTTVTVSS
VL: SYELTQPPSVSVSPGQTASITCSGDKLGDKYASWYQQKPGQSPVLVIYQDSKRPSGIPERFSGSNSGNTATLTISGTQAEDEADYYCQSTTHTSFVFGGGTKLTVL
notes: tested as IgG; also called parental antibody A-001
Work on B1 yielded an IC50 [1] of 5.1 nM, a Kd [2] of 157 nM and a Kd [3] of 576 nM. It also gave a Kd [4] of 1820 nM, a Kd [5] of 36.4 nM and an IC50 [6] of 3.1 nM.

B2: A-004 (antibody, V domains shown)
VH: QVQLVQSGAEVKKPGSSVKVSCKASGGTFRTKAIAWVRQAPGQGLEWMGGIIPIFSTANYAPKFQGRVTITADESTSTAYMELSSLRSEDTAVYYCAKDLGTYSSGWPYYYGMDVWGQGTTVTVSS
VL: SYELTQPPSVSVSPGQTASITCSGDKLGDKYASWYQQKPGQSPVLVIYQDSKRPSGIPERFSGSNSGNTATLTISGTQAEDEADYYCQSTTHTSFVFGGGTKLTVL
notes: tested as IgG
In the case of B2, the IC50 [1] is reported as 4.4 nM, the Kd [2] is reported as 12.8 nM and the Kd [3] is reported as 232 nM. The Kd [4] was 569 nM, the Kd [5] was 7.1 nM and the IC50 [6] was 4.5 nM.

B3: A-036 (antibody, V domains shown)
VH: QVQLVQSGAEVKKPGSSVKVSCKASGGTFSSYAISWVRQAPGQGLEWMGGIIPIFGTANYAQKFQGRVTITADESTSTAYMELSSLRSEDTAVYYCAKDLGTYSSGWPYYYGMDVWGQGTTVTVSS
VL: SYELTQPPSVSVSPGQTASITCSGDKLGDKYASWYQQKPGQSPVLVIYQDSKRPSGIPERFSGSNSGNTATLTISGTQAEDEADYYCQLTHLTIYVFGGGTKLTVL
notes: tested as IgG
With B3 the IC50 [1] was 1.2 nM, the Kd [2] was 35.8 nM and the Kd [4] was 42900 nM. For the same molecule, the Kd [5] was 18.6 nM and the IC50 [6] was 2.7 nM.

B4: A-046 (antibody, V domains shown)
VH: QVQLVQSGAEVKKPGSSVKVSCKASGGSFQSYAINWVRQAPGQGLEWMGGIIPGFSTANYAQKFQGRVTITADESTSTAYMELSSLRSEDTAVYYCAKDLGTYSSGWPYYYGMDVWGQGTTVTVSS
VL: SYELTQPPSVSVSPGQTASITCSGDKLGDKYASWYQQKPGQSPVLVIYQDSKRPSGIPERFSGSNSGNTATLTISGTQAEDEADYYCQLTHLTIYVFGGGTKLTVL
notes: tested as IgG
In the case of B4, the IC50 [1] is reported as 2 nM, the Kd [2] is reported as 12.6 nM and the binding result [4] is reported as “no binding (tested: 900 nM)”. The Kd [5] was 9.4 nM and the IC50 [6] was 3.7 nM.

B5: A-022 (antibody, V domains shown)
VH: QVQLVQSGAEVKKPGSSVKVSCKASGGTFGGSAISWVRQAPGQGLEWMGGIVLAYSTSVYAQKFQGRVTITADESTSTAYMELSSLRSEDTAVYYCAKGPPVGSSSWYTDWYFDLWGRGTLVTVSS
VL: SYELTQPPSVSVSPGQTASITCSGDKLGDKYASWYQQKPGQSPVLVIYQDSKRPSGIPERFSGSNSGNTATLTISGTQAEDEADYYCLSYGAHSHGVVFGGGTKLTVL
notes: tested as IgG
B5 was tested, and the IC50 [1] was 3.9 nM, the Kd [2] was 5.2 nM and the Kd [3] was 317 nM. It also gave a Kd [5] of 4.4 nM and an IC50 [6] of 3.1 nM.

B6: A-037 (antibody, V domains shown)
VH: QVQLVQSGAEVKKPGSSVKVSCKASGGTFSSYAISWVRQAPGQGLEWMGGIIPIFGTANYAQKFQGRVTITADESTSTAYMELSSLRSEDTAVYYCARVHLYYHFPASYFDYWGQGTLVTVSS
VL: SYELTQPPSVSVSPGQTASITCSGDKLGDKYASWYQQKPGQSPVLVIYQDSKRPSGIPERFSGSNSGNTATLTISGTQAEDEADYYCLASLGTGGVYVFGGGTKLTVL
notes: tested as IgG
B6 showed an IC50 [1] of 3.8 nM, a Kd [2] of 16 nM and a Kd [4] of 1270 nM. For the same molecule, the Kd [5] was 2 nM and the IC50 [6] was 3.5 nM.
